Experimental findings from patent US20030199679A1 are described below.

Experiment [1] has as its target recombinant human TNF-alpha (human) (UniProt P01375). Description: standard assay of binding to human TNFα.
Experiment [2] has the same target. Description: Scatchard analysis, 125I-TNF and unlabelled TNF in solution, antibody taken out with anti-IgG agarose beads.

For “CDP571 (CDR-grafted CB0010, grafted light chain gEU and grafted heavy chain 2hEUg) (antibody)”, the Kd in experiment [1] came to 0.087 nM; in experiment [2], 0.14 nM.

Usually Kd stands for the equilibrium constant for the complex coming apart.
